Test results taken from a protein production outcome set (Wang et al. 2014).

Assay: label from the status in PepcDB records
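Further: failed if final PepcDB status was selected cloned or expressed and not failed if soluble or beyond.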

Sequence: MKAIRRFTVRPVLPDALHPLSDLARNLRWSWHAETRELFQSVDPERWAASDGDPVRLLGSVPHARLAELAEDRRFLRRLGAAADDLTDYVTGDRWYQSQAEAPSRAAELPAAIAYFSPEFGVTAALPQYSGGLGILAGDHLKAASDLGVPLIGVGLLYRHGYFRQSLSRDGWQQEHYPVLDPHELPVVPLREDDGALAQVSLALPGGRRLQARIWLAQVGRVPLLMLDSDVEENDHGERGVTDRLYGGGSEHRLLQEMLLGIGGVRAVRTYCRLTGHAEPEVFHTNEGHAGFLGLERIAELCDTGLDFDAGLESVRAGTVFTTHTPVPAGIDRFDRELVARHFGPDAELPRIDVERILGLGMETYPGGEPNLFNMAVMGLRLGQRANGVSLLHGQVSREMFSGLWPGFDPDEVPITSVTNGVHAPTWVAPEVFRLGARQIGAQRTEDAMTVGGSERWDAVAEIPDQDIWDLRRVLREQLVTEVRERLRASWRQRGAGTAELGWIDGVLDPDVLTIGFARRVPSYKRLTLMLRDRDRLMDLLLHPERPVQIVVAGKAHPADDGGKRLVQELVRFADDPRVRHRIVFLPDYGMAMAQKLYPGCDIWLNNPLRPLEACGTSGMKAALNGCLNLSVLDGWWDEWFQPDFGWAIPTADGTATDEDRRDDLEATALYDLLEGRVAPRFYERGQAGLPDRWIEMVRQTLTHLGPKVLAGRMVREYVERLYTPAALAHRALTPEPARELATWKSRVRAAWPRVTVDHVETSVATTTAELGTTLSLRVRVGLGDLDPDDVEVQAVAGRVDGQDRITDATAVPLKPVGGPDLEGRRVYEGPLSLDRTGPFGYTVRILPTHRLLATSAELGLVAVPSEDVGEGAGVLLR
- protein production: failed

Sequence: MKALNDLNIFVETARQGSFSKAANSMDMTPAAISASIKRLEGQIGFPLFVRSTRSLRLTSEGELFLDKTTQALATLQEGLDQISSARGELSGQLHITAPSDFGRNMLLDWVDEFIDLYPNVSIKLELSDSLTDMYTKPVDIAIRYGEPADSNLVVLALCGSNERILCASPEYVATHPELTSPADLTQHNCLCYMVADSVYNKWTLTRDGEKEQVVVSGNLMSNDSDLPHRLAIKGKGIANKSLMDISRDLIEGRLVRVLPEWDSGPVPLYMVCADRRLLTPTIRTFRDFIQQKCCQQRANVLATFCH
- protein production: failed

Sequence: MKALNKIRYAFLVCTLMVLVTLAGCNSADRSAEPPQSSHQGSEQEGAKKTPLNVEVFNLGERSMFAVSSVLVTGTADAILIDTQFSAADARQLVDKIKASGKRLKAIYISHGDPDYYFGLDSVHAAFPEAKVFATPQTIAHIQATKDAKLKLWAPQLGQDAPKQILIPEPMQGDQLVLEGQELRIIGMDGPTPDRTFVWIPSSRTVAGGISVMGAQHVWMADTQTPQSHMEWLAVLDRIKSMDPKVVVPGHFLPGASLDVRSVTFTADYIRAFDEETVKAKDSAALIAAMKQRYPGLGGEGSLELSAKVAKGEMEWK
- protein production: failed

Sequence: MKASFKGKFDVDKSGSVASLTFNAGNAKLRATMTDASFVAGPSFNGLSLAVEKPGFFIIDYNVPKKDVRFQFMNTIRIAEKPLNLTYIHMRGDNRTIVDGSFVIDPANKLSANYMVGTKNCKLKYTYVHGGIATFEPCYDVAKNMWDFAISHKLYGGDNLKATYQTSSKMLGLEWSNNSKSTGSFKVCASMNLAEELKPPKLTAETTWNLEL
- protein production: not failed

Sequence: MKASSLAFSLLSAAFYLLWTPSTGLKTLNLGSCVIATNLQEIRNGFSEIRGSVQAKDGNIDIRILRRTESLQDTKPANRCCLLRHLLRLYLDRVFKNYQTPDHYTLRKISSLANSFLTIKKDLRLCHAHMTCHCGEEAMKKYSQILSHFEKLEPQAAVVKALGELDILLQWMEETE
- protein production: failed

Sequence: MKATFQVPSITCNHCVDKIEKFVGEIEGVSFIDVSVEKKSVVVEFDAPATQDLIKEALLDAGQEVV
- protein production: failed

Sequence: MKATLAAPSSLTSLPYRTNSSFGSKSSLLFRSPSSSSSVSMTTTRGNVAVAAAATSTEALRKGIAEFYNETSGLWEEIWGDHMHHGFYDPDSSVQLSDSGHKEAQIRMIEESLRFAGVTDEEEEKKIKKVVDVGCGIGGSSRYLASKFGAECIGITLSPVQAKRANDLAAAQSLAHKASFQVADALDQPFEDGKFDLVWSMESGEHMPDKAKFVKELVRVAAPGGRIIIVTWCHRNLSAGEEALQPWEQNILDKICKTFYLPAWCSTDDYVNLLQSHSLQDIKCADWSENVAPFWPAVIRTALTWKGLVSLLRSGMKSIKGALTMPLMIEGYKKGVIKFGIITCQKPL
- protein production: failed

Sequence: MKAVFAKLGSDFFSTIVFVVLYFSTGNVALATIVAVLGAVGQFIYAKIKGQRLDVMAYASVALVVVLGGATLLTNDPRFVLIKPSVGHIAVGLLMLRRDWMLRYVPPIVAETIPDYVRIAGYAWAALMLLLGTGVIAAAMTGDIKVWTFYVMVIAPAFKVAAFAGQYLVFRIAIRSRRRAAVATAEPAASTPVTAEP
- protein production: failed
